Experiment [1] has as its target T1, BAH domain of human BAHD1 (BAH589-780), wild type (Homo sapiens, UniProt Q8TBE0).
T1 construct: The BAH domain encompassing residues 589-780 of human BAHD1 was cloned in to a; 10xHis-SUMO (N, cleaved yes); made in house; host or cells: E. coli BL21 (DE3)
T1 sequence (Q8TBE0 589-780): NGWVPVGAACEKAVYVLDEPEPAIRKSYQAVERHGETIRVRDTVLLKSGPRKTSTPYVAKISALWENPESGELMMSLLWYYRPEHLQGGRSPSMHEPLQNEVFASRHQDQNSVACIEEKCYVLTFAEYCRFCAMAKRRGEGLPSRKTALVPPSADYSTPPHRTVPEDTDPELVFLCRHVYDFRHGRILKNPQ
The experiment in a line: Isothermal titration calorimetry (ITC), wild type BAH domain. The format is binding. The note with it: wild type BAHBAHD1. (In general: ITC needs no label: the signal is the heat of the interaction.)

Experiment [2] addresses BAH_(BAHD1) domain (aa 589–780), as used in ITC and HXMS (human) (UniProt Q8TBE0). Briefly: ITC; BAH_(BAHD1) domain titrated with histone peptides; optimized buffer condition (Tm 39°C in thermal shift assays).
Experiment [3] has as its target BAHD1 BAH domain, 589-780 (UniProt Q8TBE0). Briefly: isothermal titration calorimetry. Conditions: reference: H3K27me3 peptide; sites S28.
In experiment [4] the target is BAH domain of human BAHD1 (residues 589-780), wild type (human) (UniProt Q8TBE0). The experiment in a line: ITC; BAH domain (wild type or mutant) titrated with histone peptide; 15 °C, MicroCal iTC200; 20 mM Tris pH 8.5, 500 mM (NH)2SO4, 5% glycerol; "One Set of Binding Sites" fitting model.
The target in experiment [5] is T2, BAH domain of human BAHD1 (residues 589-780), wild type (human, UniProt Q8TBE0 589-780).
T2 construct: BAHD1 (bromo adjacent homology domain containing protein 1), human, BAH domain, residues 589-780 of the full-length protein (1-780); also called BAH589-780; BAH_(BAHD1); source: E. coli BL21 (DE3), purified (HisTrap, tag cleaved by ULP1, Superdex G75); not shown: 10xHis-SUMO, N-terminal, cleaved
T2 sequence (looked up): T1 sequence (Q8TBE0 589-780)
The experiment is described as above. The note with it: both partners purified.

The values that follow come from publication PMC4791424, “The BAH domain of BAHD1 is a histone H3K27me3 reader” (Protein & Cell, 2016).

Usually Kd stands for the equilibrium constant for the complex coming apart. As a reminder, the stoichiometry N is a count of units in the complex or per binding partner.

No end group written: not given here. me3 = trimethyl on lysine side chain

For “ARTKQTARKSTGGK(ac)A-NH2 [H31-15K14ac, histone H3 peptide residues 1-15 with acetylated K14]”, in experiment [1], the “binding observed by ITC (in words)” value is “no bindings were observed”.

With H3K27me1 peptide, the equilibrium dissociation constant (Kd) in experiment [2] is 2000 µM.

“H3K27me3 peptide, H3 frame 19–34 (from UniProt P68431 20-35)”: in experiment [2], the fold reduction of binding against H3 (15-42)K27me3 was determined as 3.9 fold.

As to “H3K27me3 peptide, H3 frame 21–32 (from UniProt P68431 22-33)”, the fold reduction of binding against H3 (15-42)K27me3 in experiment [2] came to 7.8 fold.

Turning to “H3_(1-15)K9me3 peptide (from UniProt P68431 2-16)”, in experiment [2], the Kd is 2600 µM.

“NH2-ARTKQTAR(me2s)KS-COOH [H31-10R8me2s, histone H3 peptide residues 1-10 with R8me2s]”: the “binding observed by ITC (in words)” value in experiment [1] is recorded as “no bindings were observed”.

Regarding histone H3 15-42 H3K27me3S28ph peptide, the KD result in experiment [3] is given as “weaker; reference 15.9”.

Take histone H3 (15-42) K27me1 peptide: the stoichiometry N in experiment [4] was 1.

histone H3 (15-42) K27me2 peptide: the stoichiometry N in experiment [4] came out at 1.1.

As for histone H3 (15-42) K27me3 S28ph peptide, the stoichiometry N in experiment [4] was 1.

On to histone H3 (15-42) K27me3 peptide, for which the stoichiometry N in experiment [4] turned out to be 1.

B1: histone H3 (21-32) K27me3 peptide (peptide)
peptide: ATKAARK(me3)SAPAT
notes: histone H3, residues 21-32 (A31: as in H3.1/H3.2); source: synthetic peptide (SciLight Biotechnology)
As to B1, in experiment [5], the equilibrium dissociation constant (Kd) came to 124 µM and the “stoichiometry N” value was found to be 1.1.

B2: histone H3 (19-34) K27me3 peptide (peptide)
peptide: QLATKAARKSAPATGG
modifications: trimethyl-lysine at K27 (K(me3))
notes: histone H3, residues 19-34 (A31: as in H3.1/H3.2); source: synthetic peptide (SciLight Biotechnology)
For the molecule B2, the dissociation constant (Kd) in experiment [5] was found to be 61.3 µM.
